Experiment [1] concerns the target T1, human CLDN18.2 on cells (CHO-hCLDN18.2, HEK293-hCLDN18.2, KATO III-hCLDN18.2, DAN-G-hCLDN18.2, NUGC-4) (human, UniProt P56856-2 1-261).
T1 construct: whole, on cells; NUGC-4 is used untransfected; also called human Claudin18.2
The experiment is described as follows: flow cytometry (FACS) on the gastric cancer cell line NUGC-4, MFI against Log[Conc(nM)]; EC50 from the table under the plot. The protocol: (§1) Referring to Example 4, the binding of the two antibodies to each of the gastric cancer cell line NUGC-4, the gastric cancer cell line KATO III-hCLDN18.2 and the pancreatic cancer cell line DAN-G-hCLDN18.2 was determined by FACS.
(A flow cytometer gives signals particle by particle.)

Experiment [2] has as its target T1, human CLDN18.2 on cells (CHO-hCLDN18.2, …). Briefly: flow cytometry (FACS) on DAN-G-hCLDN18.2 cells, MFI against Log[Conc (nM)]; EC50 from the table under the plot. As for the experimental part:
as §1

In experiment [3] the target is T2, human Claudin18.2 protein (P50251802, GenScript) (human, UniProt P56856-2 1-261, limits assumed).
T2 construct: also called human CLDN18.2
Briefly: SPR (Biacore T200), human Claudin18.2 amine-coupled to the chip, antibody 0-100 nM in the mobile phase, 1:1 model. The protocol: According to the manufacturer's instructions, human Claudin18.2 (GenScrip, P50251802) was coupled to the surface of a CMS chip (GE Healthcare, 29-1496-03) using the amino coupling kit (GE Healthcare, BR-1006-33), and the remaining activation sites were blocked by injection of 1 M ethanolamine after coupling. According to the manufacturer's instructions, the binding and dissociation between the antigen on the chip surface and antibodies in the mobile phase were determined by Biacore (GE Healthcare, T200) to obtain affinity and kinetic constants. The antibodies (0-100 nM) after gradient dilution flowed over the chip surface in an order from low to high concentrations, with the binding time of 180 s and the dissociation time of 600 s. Finally, the chip was regenerated using 10 mM Glycine pH 1.5 (GE Healthcare, BR-1003-54). Kinetic analysis of the data results were performed using Biacore T200 analysis software with a 1:1 binding model.
For orientation: Surface plasmon resonance follows binding to a sensor surface in real time, without labels.

Experiment [4] concerns the target T1, human CLDN18.2 on cells (CHO-hCLDN18.2, …). The experiment is described as follows: flow cytometry (FACS) on KATO III-hCLDN18.2 cells, MFI against Log[Conc(nM)]; EC50 from the table under the plot. The protocol:
as §1

Experiment [5] addresses T3, human CLDN18.1 on cells (CHO-hCLDN18.1) (human, UniProt P56856 1-261).
T3 construct: whole, on cells; also called human Claudin18.1
The experiment is described as follows: flow cytometry (FACS) on CHO-hCLDN18.1 cells. The protocol:
(§2) The binding of each of the above 9 antibodies to the CHO-S cell lines stably transfected with human CLDN18.2 and human CLDN18.1 (i.e., CHO-hCLDN18.2 and CHO-hCLDN18.1 prepared as described in the Examples) obtained in Example 1 was determined by flow cytometry (FACS). Reference was made to Example 2 for the experimental methods. The experimental data were analyzed using GraphPad Prism software, and FIGS. 1 and 2 were obtained.

For experiment [6], the target named is T2, human Claudin18.2 protein (P50251802, …). Briefly: BLI (Fortebio Octet Red96), AHC sensor, antibody and human Claudin18.2 protein (GenScript). The protocol:
The equilibrium dissociation constant (KD) for binding of the antibodies of the present invention to human CLDN18.2 was determined by bio-layer interferometry (BLI). A BLI affinity assay was conducted according to the existing method (Estep, P et al., High throughput solution based measurement of antibody-antigen affinity and epitope binding. MAbs, 2013.5(2): p. 270-8). The AHC (18-5060, Fortebio) sensor was soaked in SD buffer (lx PBS, BSA 0.1%, Tween-20 0.05%). 100 μL of SD buffer, each antibody and human Claudin18.2 protein (P50251802, GenScript) were added to a 96-well black polystyrene half-area microplate (Greiner, 675076), respectively. The detection was performed using Fortebio Octet Red96, and the KD values were analyzed using Fortebio Octet analysis software.
A general note: Biolayer interferometry detects binding as a change in optical thickness at a sensor tip.

Experiment [7] addresses T1, human CLDN18.2 on cells (CHO-hCLDN18.2, …). The experiment is described as follows: flow cytometry (FACS) on CHO-hCLDN18.2 cells, MFI against Log[Conc.(nM)]; EC50 from the table under the plot. As for the experimental part: as §2
The target is the same in experiment [8]. The experiment is described as above. The protocol: as §2
The source holds these as a separate data set.

For experiment [9] the target is unchanged. Described as above. As for the experimental part:
as §2
This is another data set of the same source.

B1: Hz69H9 (antibody, human IgG1, kappa, V domains shown)
VH: QVQLVQSGAEVKKPGSSVKVSCKASGYSFSSYNIHWVRQAPGQGLEWMGYIAPFQGDSRYNQKFKGRVTITADKSTSTAYMELSSLRSEDTAVYYCARLNRGNSLDYWGQGTLVTVSS
VL: DIVMTQSPDSLAVSLGERATINCKSSQSLFNSGNQRNYLTWYQQKPGQPPKLLIYWASTRESGVPDRFSGSGSGTDFTLTISSLQAEDVAVYYCQNNYIYPLTFGGGTKVEIKR
As to B1, the EC50 (as a rule, the concentration that produces a half-maximal response) in [1] worked out at 2.2 nM. Moreover, it took 1.79 nM to reach a half-maximal effect in [2] (EC50). In experiment [3], the Kd – broadly, the equilibrium constant for the complex coming apart – came out at 0.299 nM; the koff (as a rule, the rate constant with which the complex falls apart) is 0.000116 s⁻¹; the kon (in general, a measure of how fast the partners come together) was found to be 387000 M⁻¹ s⁻¹. Further, in experiment [4], the EC50 was found to be 3.25 nM.

B2: 46F6 (antibody, human IgG1, kappa, V domains shown)
VH: QVQLKESGPGLVAPSQSLSITCTVSGFSLTDYGVSWIRQPPGKGLEWLGVMWGGGNTYYNSALKSRLSISKDNSKSQVFLKMNSLQSDDTAMYYCAKQRYGGNAMDYWGQGTSVTVSS
VL: DIQMTQSPSSLTVTAGEKVTMSCKSSQSLLNSGNQRNYLTWYQQIPGQPPKLLIYWASTRESGVPNRFTGSGSGAEFTLTISSVQTEDLAVYYCQNSYFYPFTFGAGTKLELKR
Turning to B2, in [5], the binding result is “no binding”. This molecule also showed an equilibrium dissociation constant (Kd) in experiment [6] of 0.732 nM. Also, in experiment [7], the EC50 was 5.41 nM.

B3: Positive control antibody Zmab (zolbetuximab) (antibody, human IgG1, kappa, V domains shown)
VH: QVQLQQPGAELVRPGASVKLSCKASGYTFTSYWINWVKQRPGQGLEWIGNIYPSDSYTNYNQKFKDKATLTVDKSSSTAYMQLSSPTSEDSAVYYCTRSWRGNSFDYWGQGTTLTVSS
VL: DIVMTQSPSSLTVTAGEKVTMSCKSSQSLLNSGNQKNYLTWYQQKPGQPPKLLIYWASTRESGVPDRFTGSGSGTDFTLTISSVQAEDLAVYYCQNDYSYPFTFGSGTKLEIKR
Take B3: the EC50 in experiment [8] is 3.46 nM; in experiment [9], 3.31 nM; in experiment [7], 3.12 nM. The Kd in experiment [6] was 2.14 nM.

B4: 69H9 (antibody, human IgG1, kappa, V domains shown)
VH: EVQLQQSGPELMKPGASVKISCKATGYSFSSYNIHWVKQSHGKSLEWIGYIAPFNGDSRYNQKFKGKATVTVDKSSSTAYMHLSSLTSEDSAVYYCGRLNRGNSLDYWGQGTSLTVSS
VL: DIVMTQSPSSLTVTAGEKVTMSCKSSQSLFNSGNQRNYLTWYQQKPGQPPKLLIYWASTRESGVPDRFTGSGSGTDFTLTISSVQAEDLAFYYCQNNYIYPLTFGAGTKLELKR
Consider B4, for which, in [5], the binding result is “no binding”. Moreover, in experiment [6], binding was characterised by a dissociation constant (Kd) of 0.946 nM. In addition, the EC50 in experiment [7] came out at 5.36 nM.

B5: HB37A6 (fully human antibody) (antibody, human IgG1, kappa, V domains shown)
VH: EVQLLDSGGGLVQPGGSLRLSCAASGFTFSSYVMSWVRQAPGKGLNWVSTISHSGGSTYYADSVKGRFTISRDNSKNTLYLQMNSLRAEDTAVYYCAIDAPYYDILTGYRYWGQGTLVTVSS
VL: not shown
For the molecule B5, the binding result in experiment [5] is “no binding”. Besides, the EC50 in [9] was found to be 5.51 nM; in [1] it was 1.08 nM; in experiment [2], 0.958 nM; in [4], 0.569 nM. The Kd was 0.326 nM in experiment [6] and 0.72 nM in experiment [3]. This molecule also returned a koff in experiment [3] of 0.000306 s⁻¹. Besides, the kon in experiment [3] is 425000 M⁻¹ s⁻¹.

The values are drawn from patent US20230235047A1 (Innovent, published 2023).
